# Data from article PMC3482105.
# How the values were obtained:
# GCaMP2-LIA = test: crystal structure
# GCaMP5H = test: crystal structure
Substance,stoichiometry N (GCaMP2-LIA),stoichiometry N (GCaMP5H)
GCaMP2-LIA,2,
GCaMP5H,,2
